Columns and labels:
L363 cells = assay: JNG assay, co-culture with L363 cells; assay type: cell-based; conditions: co-culture with L363
In short: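 Jurkat NFAT-GFP (JNG) cells stably transduced with SARs by lentivirus, with drug selection where the construct carried a resistance gene, then co-cultured with target cells at E:T ~1:2 for ~4–18 h. % GFP-positive cells measured by FACS against parental JNG; +/- to 5+ correspond to ~5–50% GFP-positive.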

Nalm6 cells = assay: JNG assay, co-culture with Nalm6 cells; assay type: cell-based; conditions: co-culture with Nalm6
Method: Cellular supernatant is collected and assayed for the induction of cytokines (e.g., IL2).
JNG (Jurkat cells expressing EGFP under an NFAT promoter) were infected with lentiviral vectors encoding different single chain and multi-chain SARs by spinfection in the presence of 8 µg/ml of Polybrene® (Sigma, Catalog no. H9268). The Jurkat-NFAT-GFP cells are engineered in such a way that the IL-2 promoter, which carries NFAT binding sites, is cloned upstream of the GFP gene. These cells have been used to study signaling via TCR and CAR. The different SARs were stably expressed in Jurkat NFAT-GFP cells by lentiviral mediated gene transfer, followed by selection with puromycin or blasticidin. No drug selection was used in case the construct lacked an antibiotic resistance gene. The SAR-expressing Jurkat-NFAT-GFP cells were cocultured with the target cells at E:T ratio of approximately 1:2 for approximately 4 hours to 18 hours. When the interaction between SIRs and their target antigen results in activation of the NFAT pathway, GFP expression is induced. […] GFP expression was monitored by FACS analysis. The Jurkat-NFAT-GFP (parental) cells were used as control. The structure of different constructs can be determined based on their names. For example, the construct CD8SP-CD19-hu-mROO5-1-vL-[hTCRa-C SDVP]-F-F2A-Spe-IgHSP-Apa-CD20-vHH-2HCD25-G4S-CDl9-hu-mROO5-1-vH-Mlu-[hTCRb-KACIAH]-F-P2A-PAC has the following modules from 5′ to 3′ direction: a CD8 signal peptide (CD8SP), the CD19 targeting hu-mROO5-1 vL fragment (CD19-hu-mROO5-1), Xho1 cloning site, human TCRa constant chain containing CSDVP mutations (hTCRa-CSDVP), Furine cleavage site (F), F2A ribosomal skip sequence (F2A), SpeI site, human IgH signal peptide (IgHSP), Apa I restriction enzyme site, camelid CD20-2HCD25-VHH module targeting CD20, BamHI restriction enzyme site, Glycinex4-serine linker (G4S), BstI restriction enzyme site, CD19-hu-mROO5-1-vH fragment targeting CD19, Mlu I restriction enzyme site, human TCRb constant chain containing KACIAH mutations ([hTCRb-KACIAH]), Furine cleavage site (F), P2A ribosomal skip sequence and Puromycin resistance gene (PAC). The sequence of the other constructs in the table can be similarly determined from their names and by referring to the different Tables of this disclosure that provide the names and SEQ ID NO of the different modules. Alternatively, the composition and modular architecture of the different SAR constructs can be determined from their sequences by bioinformatics tools, including using nucleic acid and amino acids homology searches. A SAR is considered positive in the assay in case the SAR expressing Jurkat-NFAT-GFP cells show greater % GFP positive cells when cultured with the target cell line as compared to parental Jurkat-NFAT-GFP cells. The signs +/-, +, 2+ etc. after the name of the cell lines indicate the relative degree of positivity on the Jurkat-NFAT-GFP assay as measured by the % GFP positive cells after culture of the SAR expressing Jurkat-NFAT-GFP cells with that cell line above the % GFP cells observed in parental Jurkat NFAT-GFP cells serving as controls. In general, the number +/-, +, 2+, 3+, 4+, 5+ refer to approximately 5%, 10%, 20%, 30%, 40% and 50% GFP positive cells. The % of GFP induction in the above assay is dependent not only the relative strength of the SAR but also, among other factors, on the relative level of expression of the SAR in the JNG cells and the relative level of expression of the target antigen in the target cell line. To control for the difference in gene transduction efficiency of the different SAR constructs, the experiment was conducted with JNG cells transduced with SAR constructs co-expressing a drug resistance gene (e.g., puromycin or PAC) followed by drug selection to generate a stable population of SAR-expressing cells. […]

Molecule	NFAT-GFP ASSAY: L363 (L363 cells)	NFAT-GFP ASSAY: Nalm6 (Nalm6 cells)
21987 (protein) MALPVTALLLPLALLLHAARPQLQLQESGPGLVKPSETLSLTCTVSGDSISSGDYYWGWIRQPPGKGLEWIGHIYYSGVTYYNPSLKSRVTISVDTSRNQFSLKLSSVTAADTAVYYCTREDSSNWRSRGQGTLVTVSSLEDLKNVFPPEVAVFEPSEAEISHTQKATLVCLATGFYPDHVELSWWVNGKEVHSGVCTDPQPLKEQPALNDSRYCLSSRLRVSATFWQNPRNHFRCQVQFYGLSENDEWTQDRAKPVTQIVSAEAWGRADCGFTSESYQQGVLSATILYEILLGKATLYAVLVSALVLMAMVKRKDSRGRAKRSGSGATNFSLLKQAGDVEENPGPTSMDWIWRILFLVGAATGAHSFEQVQLVESGGGLVQPGGSLRLSCAASGFTFTNHAMSWVRQAPGKGLELVSSISGNGRTTYYADSVKGRFTISRDISKNTLDLQMNSLRAEDTAVYYCAKDGGETLVDSRGQGTLVTVSSTRIQNPDPAVYQLRDSKSSDKSVCLFTDFDSQTNVSQSKDSDVYITDKCVLDMRSMDFKSNSAVAWSNKSDFACANAFNNSIIPEDTFFPSPESSCDVKLVEKSFETDTNLNFQNLSVIGFRILLLKVAGFNLLMTLRLWSSRAKRSGSGVKQTLNFDLLKLAGDVESNPGPSRGHMTEYKPTVRLATRDDVPRAVRTLAAAFADYPATRHTVDPDRHIERVTELQELFLTRVGLDIGKVWVADDGAAVAVWTTPESVEAGAVFAEIGPRMAELSGSRLAAQQQMEGLLAPHRPKEPAWFLATVGVSPDHQGKGLGSAVVLPGVEAAERAGVPAFLETSAPRNLPFYERLGFTVTADVEVPEGPRTWCMTRKPGA	+ (refer to approximately 5%, 10%, 20%, 30%, 40% and 50% GFP positive cells)	+/- (refer to approximately 5%, 10%, 20%, 30%, 40% and 50% GFP positive cells)
22047 (protein) MALPVTALLLPLALLLHAARPQLQLQESGPGLVKPSETLSLTCTVSGDSISSGDYYWGWIRQPPGKGLEWIGHIYYSGVTYYNPSLKSRVTISVDTSRNQFSLKLSSVTAADTAVYYCTREDSSNWRSRGQGTLVTVSSLEDKTHTCPPCPAPIKTDVITMDPKDNCSKDANDTLLLQLTNTSAYYMYLLLLLKSVVYFAIITCCLLRRTAFCCNGEKSRAKRSGSGATNFSLLKQAGDVEENPGPTSMDWIWRILFLVGAATGAHSFEVQLLESGGGLIQPGGSLRLSCAASGFTFSSHAMTWVRQAPGKGLEWVSAISGSGDYTHYADSVKGRFTISRDNSKNTVYLQMNSLRAEDSAVYYCAKDEDGGSLLGHRGQGTLVTVSSTRIQNPDPAVYQLRDSKSSDKSVCLFTDFDSQTNVSQSKDSDVYITDKCVLDMRSMDFKSNSAVAWSNKSDFACANAFNNSIIPEDTFFPSPESSCDVKLVEKSFETDTNLNFQNLSVIGFRILLLKVAGFNLLMTLRLWSSRAKRSGSGVKQTLNFDLLKLAGDVESNPGPSRGHMTEYKPTVRLATRDDVPRAVRTLAAAFADYPATRHTVDPDRHIERVTELQELFLTRVGLDIGKVWVADDGAAVAVWTTPESVEAGAVFAEIGPRMAELSGSRLAAQQQMEGLLAPHRPKEPAWFLATVGVSPDHQGKGLGSAVVLPGVEAAERAGVPAFLETSAPRNLPFYERLGFTVTADVEVPEGPRTWCMTRKPGA	+/- (refer to approximately 5%, 10%, 20%, 30%, 40% and 50% GFP positive cells)	+/- (refer to approximately 5%, 10%, 20%, 30%, 40% and 50% GFP positive cells)
